Experimental findings from patent US20100221262A1 are described below.

Substitutions are numbered along the chain they refer to.

By Kd is commonly meant a measure of binding affinity in units of concentration. Higher therefore signals a looser complex.

Test [1] has as its target Murine Unc5B (mouse) (UniProt Q8K1S3). In words: SPR (ProteOn XPR36), antibody immobilised, murine Unc5B-His as analyte.
Test [2] deals with human Unc5B-His (two N-terminal Ig-like domains of Unc5B, amino acid M1 to amino acid V243, C-terminal Histidine tag) (human) (UniProt Q8IZJ1). In words: SPR (ProteOn XPR36), antibody immobilised, human Unc5B-His as analyte.

Sequence of Murine Unc5B (mouse) (Q8K1S3 27-243 limits assumed, form in doubt): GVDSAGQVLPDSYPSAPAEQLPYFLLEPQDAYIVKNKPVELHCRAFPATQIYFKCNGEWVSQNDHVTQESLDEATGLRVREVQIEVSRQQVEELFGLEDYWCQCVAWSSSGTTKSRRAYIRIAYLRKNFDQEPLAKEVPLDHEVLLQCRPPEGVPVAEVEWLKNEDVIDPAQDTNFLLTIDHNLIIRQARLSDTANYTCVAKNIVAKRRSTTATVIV

B1: YW 88.7 (antibody, part only; not given: constant regions, part only)
heavy chain, part: EVQLVESGGGLVQPGGSLRLSCAASGFTFSDNWISWVRQAPKGLEWVGGIYPAGGYTYYADSVKGRFTISADTSKNTAYLQMSLRAEDTAVYYCAHDIHTRIAVMDYWGQGTLVTVSS
light chain: DIQMTQSPSSLSASVGDRVTITCRASQDVSTAVAWYQQKPGKAPKLLIYSASFLYSGVPSRFSGSGSGTDFTLTISSLQPEDFATYYCQQSYTTPPTFGQGTKVEIKR
For B1, the dissociation constant (Kd) in test [1] came to 1.1 nM; in test [2] it was 20 nM.

B2: YW 83.4 (antibody, part only; not given: constant regions, part only)
heavy chain, part: EVQLVESGGGLVQPGGSLRLSCAASGFTFTNYDIHWVRQAPKGLEWVGWISPSGGYTNYADSVKGRFTISADTSKNTAYLQMSLRAEDTAVYYCARQLWAVRGWVMDYWGQGTLVTVSS
light chain: B1 light chain
For B2, in test [2], the Kd turned out to be 2.9 nM.

B3: YW 88.64 (antibody, part only; not given: constant regions, part only)
heavy chain, part: EVQLVESGGGLVQPGGSLRLSCAASGFTFSNSGISWVRQAPKGLEWVGYIYPDNGSTNYADSVKGRFTISADTSKNTAYLQMSLRAEDTAVYYCARGVWWFDYWGQGTLVTVSS
light chain: B1 light chain
In test [2], B3 returned a Kd of 84 nM.

B4: YW 83.7 (antibody, part only; not given: constant regions, part only)
heavy chain, part: B2 heavy chain, part with N31G, Y32S, D33S, S51T, S53N, L98S, A100V, V101L, V105A
light chain: B1 light chain
B4: the Kd in test [2] was 4.1 nM.
